These results are taken from publication PMC9954413.

One assay addresses UbcH5B (Homo sapiens) (UniProt P62837). The assay is described as follows: ITC. The note with it: cited from earlier work.
Assay [1] concerns the target Arkadia (RNF111) LONG, residues 876-994 (Ark LONG, 119 aa) (human) (UniProt Q6ZNA4).
The target in assay [2] is Arkadia LONG R983K (human) (UniProt Q6ZNA4). The assay is described as follows: ITC; 1-3 mM E2 in the syringe injected (2 uL, 15-19 injections) into 100-300 uM Arkadia polypeptide in the cell; 25 °C; 50 mM KH2PO4, 50 mM K2HPO4 pH 7; single-site model.
In assay [3] the target is Arkadia (RNF111) LONG, residues 876-994 (Ark LONG, 119 aa) (human) (UniProt Q6ZNA4). The description is as above.
The target in assay [4] is Arkadia LONG R983A (human) (UniProt Q6ZNA4). Described as above.
Arkadia LONG R983A (human), sequence (Q6ZNA4 876-994 R983A): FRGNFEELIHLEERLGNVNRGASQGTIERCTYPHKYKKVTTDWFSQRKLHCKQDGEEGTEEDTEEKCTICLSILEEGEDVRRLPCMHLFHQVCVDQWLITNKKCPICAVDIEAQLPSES

UbcH5B (UBE2D2), sequence (P62837 whole entry): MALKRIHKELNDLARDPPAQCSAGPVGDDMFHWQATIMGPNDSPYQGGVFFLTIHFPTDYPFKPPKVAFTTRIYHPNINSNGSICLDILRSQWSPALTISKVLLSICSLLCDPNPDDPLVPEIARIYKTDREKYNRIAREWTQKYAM
Arkadia (RNF111) LONG, residues 876-994 (Ark LONG, 119 aa) (human), sequence (Q6ZNA4 876-994): as the sequence (Q6ZNA4 876-994 R983A) above, with A108R counted along it
Arkadia LONG R983K (human), sequence (Q6ZNA4 876-994 R983K): as the sequence (Q6ZNA4 876-994 R983A) above, with A108K counted along it
UbcH5B (Homo sapiens), sequence (P62837 whole entry, the tested form may be a part): as the sequence (P62837 whole entry) above
Arkadia RING RING, sequence (Q6ZNA4 939-986): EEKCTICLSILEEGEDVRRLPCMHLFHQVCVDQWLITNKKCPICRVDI

For the substance Arkadia RING RING (from UniProt Q6ZNA4), in the assay with UbcH5B (Homo sapiens), the equilibrium dissociation constant (Kd) is 32 µM.

In assay [1], “UbcH5B (UBE2D2) (from UniProt P62837 1-147) (enzyme)” displayed an in vitro auto-ubiquitylation of Ark LONG: time until polyubiquitylation is achieved of 5 min. Besides, the dH in assay [2] is -3.6 kcal/mol; in assay [3], -4.7 kcal/mol; in assay [4], -5.8 kcal/mol. The stoichiometry N in assay [2] came to 0.5; in assay [3] it was 0.6; in assay [4], 0.7.
